Results taken from patent US20030165527A1 (published 2003).

Target: T1, collagen type I from calf skin (Boehringer) (calf, UniProt P02453 162-1217; P02465 80-1117)
T1 construct: Bought preparation coated on microtiter wells
Assay: not described; control for the collagen-Fn inhibition ELISA

T1 sequence (P02453 162-1217 limits assumed, chain 1 of 2): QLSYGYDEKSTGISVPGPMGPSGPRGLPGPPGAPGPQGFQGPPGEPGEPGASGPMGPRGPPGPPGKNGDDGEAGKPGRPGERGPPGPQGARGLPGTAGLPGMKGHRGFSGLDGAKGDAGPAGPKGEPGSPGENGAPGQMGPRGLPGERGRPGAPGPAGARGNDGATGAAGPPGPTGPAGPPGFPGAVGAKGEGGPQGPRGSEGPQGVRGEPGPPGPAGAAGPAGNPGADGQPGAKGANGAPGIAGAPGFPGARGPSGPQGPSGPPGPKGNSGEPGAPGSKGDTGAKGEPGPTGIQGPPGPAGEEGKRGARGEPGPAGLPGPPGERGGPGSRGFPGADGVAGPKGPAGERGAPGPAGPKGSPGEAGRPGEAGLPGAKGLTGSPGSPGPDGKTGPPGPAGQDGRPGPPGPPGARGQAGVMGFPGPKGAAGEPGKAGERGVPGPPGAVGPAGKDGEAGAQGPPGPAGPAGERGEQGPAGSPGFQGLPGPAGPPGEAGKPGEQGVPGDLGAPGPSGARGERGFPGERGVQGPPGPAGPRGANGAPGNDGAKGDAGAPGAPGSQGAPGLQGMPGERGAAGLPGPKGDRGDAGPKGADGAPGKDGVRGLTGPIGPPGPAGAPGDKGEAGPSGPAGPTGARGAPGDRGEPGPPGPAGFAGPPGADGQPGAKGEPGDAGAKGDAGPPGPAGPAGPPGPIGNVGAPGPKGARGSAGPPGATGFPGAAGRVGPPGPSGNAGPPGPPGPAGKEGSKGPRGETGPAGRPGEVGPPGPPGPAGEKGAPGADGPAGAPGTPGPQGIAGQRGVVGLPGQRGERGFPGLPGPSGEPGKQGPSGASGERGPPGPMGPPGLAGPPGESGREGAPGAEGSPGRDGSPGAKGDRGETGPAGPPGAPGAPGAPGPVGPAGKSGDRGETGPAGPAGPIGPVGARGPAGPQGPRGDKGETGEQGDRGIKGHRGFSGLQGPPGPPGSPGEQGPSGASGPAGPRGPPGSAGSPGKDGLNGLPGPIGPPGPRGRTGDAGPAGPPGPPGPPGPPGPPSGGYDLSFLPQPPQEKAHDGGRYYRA
T1 sequence (P02465 80-1117 limits assumed, chain 2 of 2): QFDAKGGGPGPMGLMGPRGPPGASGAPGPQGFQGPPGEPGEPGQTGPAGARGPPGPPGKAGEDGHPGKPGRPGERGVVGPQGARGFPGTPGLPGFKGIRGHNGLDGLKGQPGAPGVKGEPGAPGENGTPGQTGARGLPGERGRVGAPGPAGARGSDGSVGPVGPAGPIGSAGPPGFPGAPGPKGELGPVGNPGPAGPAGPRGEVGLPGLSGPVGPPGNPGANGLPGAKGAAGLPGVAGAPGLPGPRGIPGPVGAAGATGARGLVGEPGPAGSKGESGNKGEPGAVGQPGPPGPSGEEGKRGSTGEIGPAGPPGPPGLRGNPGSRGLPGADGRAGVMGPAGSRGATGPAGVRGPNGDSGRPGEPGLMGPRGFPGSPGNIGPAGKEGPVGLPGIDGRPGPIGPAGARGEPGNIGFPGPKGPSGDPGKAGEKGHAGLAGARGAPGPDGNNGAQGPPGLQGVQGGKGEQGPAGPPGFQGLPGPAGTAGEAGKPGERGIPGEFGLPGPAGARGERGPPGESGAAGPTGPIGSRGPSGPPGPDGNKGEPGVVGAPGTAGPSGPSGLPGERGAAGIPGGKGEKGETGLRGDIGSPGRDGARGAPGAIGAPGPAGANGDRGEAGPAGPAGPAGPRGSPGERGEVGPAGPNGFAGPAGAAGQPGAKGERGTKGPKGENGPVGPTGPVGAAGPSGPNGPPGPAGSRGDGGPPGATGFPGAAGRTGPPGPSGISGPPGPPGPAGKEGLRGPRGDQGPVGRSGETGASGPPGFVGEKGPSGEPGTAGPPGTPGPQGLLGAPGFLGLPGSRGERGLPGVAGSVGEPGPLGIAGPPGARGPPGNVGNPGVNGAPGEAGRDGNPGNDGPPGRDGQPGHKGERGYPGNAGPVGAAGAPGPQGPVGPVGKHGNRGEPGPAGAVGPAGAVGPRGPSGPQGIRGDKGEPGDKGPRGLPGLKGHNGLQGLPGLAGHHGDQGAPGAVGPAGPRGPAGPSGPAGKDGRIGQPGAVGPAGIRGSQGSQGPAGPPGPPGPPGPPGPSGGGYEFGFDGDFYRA

B1: recombinant fusion protein SFS-E (mature protein SFS of Streptococcus equi subsp. equi Bd 3221 with E-tag) (other)
chain: GAALVFGGLLGSLGGSSHQARPKEQPVSSIGDDDKSHKSSSDQPTNHQHQATSPSQPTAKSSGHHGNQPQSLSVNSQGNSSGQASEPQAIPNQHHQPQGKPQHLDLGKDNSSPQPQPKPQGNSPKLPEKGLNGENQKEPEQGERGLPGLNGENQKEPEQGERGEAGPPSTPNLEGNNRKNPLKGLDGENKPKEDLDGYNHGRRDGYRVGYEDGYGGKKHKGDYPKRFDESSPKEYNDYSQGYNDNYGNGNPD
notes: PCR fragment encoding the mature SFS was cloned into pG8SAET and purified from the periplasm on an anti-E tag column; both are treated as one molecule; also called recombinant protein SFS; not shown: 13 amino acid peptide tag (E-tag) encoded by vector pG8SAET
binding result: no binding
